In this series the target is FANCI-Ub (mono-ubiquitinated at K523);FANCD2-Ub (mono-ubiquitinated at K561) (human;human) (UniProt Q9NVI1+Q9BXW9). The series can be described thus: EMSA. Conditions: nick. A general note: In EMSA bound probe runs differently from free probe, usually more slowly.
FANCI-Ub (mono-ubiquitinated at K523);FANCD2-Ub (mono-ubiquitinated at K561) (human;human), sequence (Q9NVI1 whole entry, chain 1 of 2): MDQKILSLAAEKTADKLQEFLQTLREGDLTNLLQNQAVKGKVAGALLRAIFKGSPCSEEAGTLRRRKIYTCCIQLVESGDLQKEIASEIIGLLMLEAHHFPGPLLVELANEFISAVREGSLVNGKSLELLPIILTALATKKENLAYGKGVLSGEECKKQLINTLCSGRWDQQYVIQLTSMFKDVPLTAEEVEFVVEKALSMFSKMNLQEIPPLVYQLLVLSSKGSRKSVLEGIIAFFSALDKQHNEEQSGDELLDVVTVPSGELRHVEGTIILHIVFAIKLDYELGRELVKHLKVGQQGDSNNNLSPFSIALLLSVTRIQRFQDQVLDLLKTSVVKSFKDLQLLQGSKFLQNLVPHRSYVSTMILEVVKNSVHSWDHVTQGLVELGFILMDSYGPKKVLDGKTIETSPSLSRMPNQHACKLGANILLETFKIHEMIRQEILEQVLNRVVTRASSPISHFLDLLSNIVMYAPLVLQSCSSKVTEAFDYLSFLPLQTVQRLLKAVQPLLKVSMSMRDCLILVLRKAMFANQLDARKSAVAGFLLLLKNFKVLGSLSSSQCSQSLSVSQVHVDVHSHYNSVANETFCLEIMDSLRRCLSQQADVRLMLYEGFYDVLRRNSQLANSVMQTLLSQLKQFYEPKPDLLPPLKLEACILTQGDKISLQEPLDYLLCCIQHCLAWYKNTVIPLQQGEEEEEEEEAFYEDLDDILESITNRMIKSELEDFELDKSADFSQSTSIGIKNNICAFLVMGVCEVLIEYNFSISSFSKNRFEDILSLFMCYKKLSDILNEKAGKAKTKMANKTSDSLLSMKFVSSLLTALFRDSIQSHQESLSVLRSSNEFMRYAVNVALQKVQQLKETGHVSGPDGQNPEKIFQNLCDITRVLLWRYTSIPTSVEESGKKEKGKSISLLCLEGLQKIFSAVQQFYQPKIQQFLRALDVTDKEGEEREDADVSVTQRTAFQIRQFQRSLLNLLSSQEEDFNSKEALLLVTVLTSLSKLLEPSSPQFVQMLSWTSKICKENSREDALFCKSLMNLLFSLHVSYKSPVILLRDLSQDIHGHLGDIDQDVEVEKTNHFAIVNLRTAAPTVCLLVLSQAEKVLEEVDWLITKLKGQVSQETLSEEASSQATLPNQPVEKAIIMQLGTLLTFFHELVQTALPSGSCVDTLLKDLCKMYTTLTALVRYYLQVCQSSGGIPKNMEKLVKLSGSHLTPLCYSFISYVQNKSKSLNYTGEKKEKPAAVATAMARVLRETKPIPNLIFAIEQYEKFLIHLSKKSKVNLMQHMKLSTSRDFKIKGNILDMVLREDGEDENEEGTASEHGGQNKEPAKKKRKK
FANCI-Ub (mono-ubiquitinated at K523);FANCD2-Ub (mono-ubiquitinated at K561) (human;human), sequence (Q9BXW9 whole entry, chain 2 of 2): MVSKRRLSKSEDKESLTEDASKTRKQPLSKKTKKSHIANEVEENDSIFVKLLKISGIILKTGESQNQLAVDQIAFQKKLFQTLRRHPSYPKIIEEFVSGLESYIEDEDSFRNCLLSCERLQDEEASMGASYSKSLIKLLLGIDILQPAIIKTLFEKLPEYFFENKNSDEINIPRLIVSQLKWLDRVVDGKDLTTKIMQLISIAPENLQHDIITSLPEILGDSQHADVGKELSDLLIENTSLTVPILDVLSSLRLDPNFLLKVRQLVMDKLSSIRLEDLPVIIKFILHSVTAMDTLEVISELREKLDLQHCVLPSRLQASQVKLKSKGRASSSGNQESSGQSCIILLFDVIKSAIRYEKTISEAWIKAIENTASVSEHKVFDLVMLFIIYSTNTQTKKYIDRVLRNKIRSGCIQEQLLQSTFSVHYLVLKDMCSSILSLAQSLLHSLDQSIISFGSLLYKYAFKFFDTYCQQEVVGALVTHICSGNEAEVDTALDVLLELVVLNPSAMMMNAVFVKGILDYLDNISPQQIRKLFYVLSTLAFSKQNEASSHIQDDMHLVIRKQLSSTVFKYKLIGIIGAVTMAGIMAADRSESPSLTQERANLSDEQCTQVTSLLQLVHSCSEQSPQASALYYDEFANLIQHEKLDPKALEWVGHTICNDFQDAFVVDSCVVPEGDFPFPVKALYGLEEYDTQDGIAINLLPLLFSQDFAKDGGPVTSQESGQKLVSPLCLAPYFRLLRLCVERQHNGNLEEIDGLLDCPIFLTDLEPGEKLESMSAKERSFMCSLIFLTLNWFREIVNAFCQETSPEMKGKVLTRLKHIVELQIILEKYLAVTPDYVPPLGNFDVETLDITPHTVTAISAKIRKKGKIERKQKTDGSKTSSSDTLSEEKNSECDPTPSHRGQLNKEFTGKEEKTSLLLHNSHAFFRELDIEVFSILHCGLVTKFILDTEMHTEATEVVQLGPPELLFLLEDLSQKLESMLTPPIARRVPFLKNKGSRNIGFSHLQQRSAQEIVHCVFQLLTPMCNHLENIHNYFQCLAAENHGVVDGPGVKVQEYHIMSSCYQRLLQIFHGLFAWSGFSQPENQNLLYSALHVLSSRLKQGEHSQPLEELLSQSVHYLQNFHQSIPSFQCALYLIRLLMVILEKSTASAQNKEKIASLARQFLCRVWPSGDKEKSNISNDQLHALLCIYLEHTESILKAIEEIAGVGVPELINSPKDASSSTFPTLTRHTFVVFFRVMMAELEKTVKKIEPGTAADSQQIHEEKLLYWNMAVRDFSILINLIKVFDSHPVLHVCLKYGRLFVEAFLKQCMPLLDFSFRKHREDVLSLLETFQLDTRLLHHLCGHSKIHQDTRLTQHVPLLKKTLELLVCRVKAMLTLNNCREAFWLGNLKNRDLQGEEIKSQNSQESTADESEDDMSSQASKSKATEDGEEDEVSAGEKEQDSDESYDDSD

The term Kd denotes the concentration at which binding is half-saturated. Regarding nicked DNA, EMSA, the equilibrium dissociation constant (Kd) came out at 20 nM.

(Values after article doi:10.1101/854133.)
